{
  "source": "patent US20120028912A1",
  "binders": {"B1": {"name": "bromodomain of P/CAF (residues 719-832 of SEQ ID NO:2), Q92831 719-832 (protein)", "chain": "SKEPRDPDQLYSTLKSILQQVKSHQSAWPFMEPVKRTEAPGYYEVIRFPMDLKTMSERLKNRYYVSKKLFMADLQRVFTNCKEYNAAESEYYKCANILEKFFFSKIKEAGLIDK"}},
  "molecular_target": "lysine-acetylated histone H4 peptide SGRGKGG-AcK-GLGK (Lys8 acetylated)",
  "test": "NMR titration, 15N-HSQC chemical shift changes against ligand concentration",
  "data": [
    {"binder": "B1", "values": [
      {"measurement": "Kd", "result": 346, "unit": "µM"}
    ]}
  ]
}
